Values joined by “and” are separate entries in the source; they are usually repeats but may differ in a detail not shown here. Equal values may be shown once. One block for each substance: values may come before it.
Tests used:
[1] = biological target: murine CTLA4 (murine) (UniProt P09793); experiment: ELISA on coated CTLA4, source Mouse (row of 8D2(Re))
[2] = biological target: murine CTLA4 (murine) (UniProt P09793); experiment: ELISA on coated CTLA4, source Mouse (row of 8D2H1L1)
[3] = biological target: monkey CTLA4-hFc (monkey); experiment: ELISA, coat monkey CTLA4-hFc 0.25 ug/ml; antibody 1:243 (start 1 ug/ml)
[4] = biological target: murine CTLA4 (murine) (UniProt P09793); experiment: ELISA, coat murine CTLA4 0.5 ug/ml; antibody 0.3 ug/ml
[5] = biological target: murine CTLA4 (murine) (UniProt P09793); experiment: ELISA, coat murine CTLA4 0.5 ug/ml; antibody 0.01 ug/ml
[6] = biological target: monkey CTLA4-hFc (monkey); experiment: ELISA on coated CTLA4, source Monkey (row of 8D2H3L3)
[7] = biological target: murine CTLA4 (murine) (UniProt P09793); experiment: ELISA, coat murine CTLA4 0.5 ug/ml; antibody 0 ug/ml (blank)
[8] = biological target: monkey CTLA4-hFc (monkey); experiment: ELISA, coat monkey CTLA4-hFc 0.25 ug/ml; antibody 1:9 (start 1 ug/ml)
[9] = biological target: murine CTLA4 (murine) (UniProt P09793); experiment: ELISA, coat murine CTLA4 0.5 ug/ml; antibody 0.003 ug/ml
[10] = biological target: monkey CTLA4-hFc (monkey); experiment: ELISA, coat monkey CTLA4-hFc 0.25 ug/ml; antibody 1 ug/ml
[11] = biological target: monkey CTLA4-hFc (monkey); experiment: ELISA on coated CTLA4, source Monkey (row of 8D2H2L2)
[12] = biological target: monkey CTLA4-hFc (monkey); experiment: ELISA, coat monkey CTLA4-hFc 0.25 ug/ml; antibody 0 (blank)
[13] = biological target: monkey CTLA4-hFc (monkey); experiment: ELISA, coat monkey CTLA4-hFc 0.25 ug/ml; antibody 1:27 (start 1 ug/ml)
[14] = biological target: monkey CTLA4-hFc (monkey); experiment: ELISA, coat monkey CTLA4-hFc 0.25 ug/ml; antibody 1:81 (start 1 ug/ml)
[15] = biological target: murine CTLA4 (murine) (UniProt P09793); experiment: ELISA, coat murine CTLA4 0.5 ug/ml; antibody 1 ug/ml
[16] = biological target: murine CTLA4 (murine) (UniProt P09793); experiment: ELISA, coat murine CTLA4 0.5 ug/ml; antibody 0.1 ug/ml
[17] = biological target: murine CTLA4 (murine) (UniProt P09793); experiment: ELISA, coat murine CTLA4 0.5 ug/ml; antibody 0.03 ug/ml
[18] = biological target: monkey CTLA4-hFc (monkey); experiment: ELISA, coat monkey CTLA4-hFc 0.25 ug/ml; antibody 1:729 (start 1 ug/ml)
[19] = biological target: monkey CTLA4-hFc (monkey); experiment: ELISA, coat monkey CTLA4-hFc 0.25 ug/ml; antibody 1:3 (start 1 ug/ml)
[20] = biological target: murine CTLA4 (murine) (UniProt P09793); experiment: ELISA on coated CTLA4, source Mouse (row of 8D2)
[21] = biological target: murine CTLA4 (murine) (UniProt P09793); experiment: ELISA, coat murine CTLA4 0.5 ug/ml; antibody 0.001 ug/ml
[22] = biological target: CTLA4 antigen on the surface of 293F-CTLA4 host cells (UniProt P16410); experiment: flow cytometry, mean fluorescence intensity with the isotype control (unlabeled 293F bar: 3.62)
Sequence of CTLA4 antigen on the surface of 293F-CTLA4 host cells (P16410 36-223 limits assumed): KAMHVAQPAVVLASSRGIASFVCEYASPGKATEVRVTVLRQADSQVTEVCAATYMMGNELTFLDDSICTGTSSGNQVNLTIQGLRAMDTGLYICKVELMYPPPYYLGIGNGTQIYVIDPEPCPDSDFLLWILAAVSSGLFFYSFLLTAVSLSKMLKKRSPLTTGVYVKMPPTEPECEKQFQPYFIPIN

EC50 [1]: 0.062 nM
EC50 [2]: 0.062 nM
absorbance at 450 nm [3]: 0.104 and 0.108
absorbance at 450 nm [4]: 2.85 and 2.9
absorbance at 450 nm [5]: 0.673 and 0.794
EC50 [6]: 0.258 nM
absorbance at 450 nm [7]: 0.046 and 0.05
absorbance at 450 nm [8]: 0.845 and 0.868
absorbance at 450 nm [9]: 0.292 and 0.328
absorbance at 450 nm [10]: 1.79 and 1.85
EC50 [11]: 0.258 nM
absorbance at 450 nm [12]: 0.049
absorbance at 450 nm [13]: 0.429 and 0.402
absorbance at 450 nm [14]: 0.19 and 0.191
absorbance at 450 nm [15]: 3 and 2.98
absorbance at 450 nm [16]: 2.43 and 2.54
absorbance at 450 nm [17]: 1.51
absorbance at 450 nm [18]: 0.063 and 0.067
absorbance at 450 nm [19]: 1.34
EC50 [20]: 0.062 nM
absorbance at 450 nm [21]: 0.136 and 0.142
Substance: control antibody 10D1

MFI [22]: 4.95
Substance: isotype control (antibody)

Reference: patent publication US20260166139A1
